Values quoted from earlier work, collected in PMC3522611.

Target: EGFR (Homo sapiens) (UniProt P00533)

Kd: 3.8 nM
Substance: HB-EGF (from UniProt Q99075)
